Assay results taken from the supplement of paper PMC10567573.

B1: TLE6 (parent)
chain: FWHDTLTEQLWRIFAGVHDEKAKP

Variants of: B1
Test: protein stability index of a GFP-peptide fusion (GPS, HEK-293T) (PSI 1-6); higher = more stable
Conditions: c terminus: a fixed tail appended
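Also: lentivirally expressed fusions sorted by FACS into six bins by GFP to DsRed ratio, PSI derived from sequencing read proportions per bin multiplied by bin number.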

Point of comparison: FWHDTLTEQLWRIFAGVHDIKAKP, protein stability index 1.99. Against it:
- FWHDTLTEQLWRIFAGVHDEAAKP — lower, 1.69
- FWHDTLTEQLWRIFAGVHDESAKP — lower, 1.6
- FWHDTLTEQLWRIFAGVHDEMAKP — higher, 2.85
- FWHDTLTEQLWRIFAGVHDERAKP — lower, 1.31
- FWHDTLTEQLWRIFAGVHDEVAKP — higher, 3.44
- FWHDTLTEQLWRIFAGVHDEFAKP — higher, 2.72
- FWHDTLTEQLWRIFAGVHDEDAKP — higher, 2.6
- FWHDTLTEQLWRIFAGVHDELAKP — higher, 2.2
- FWHDTLTEQLWRIFAGVHDEQAKP — lower, 1.81
- FWHDTLTEQLWRIFAGVHDEHAKP — lower, 1.69
- FWHDTLTEQLWRIFAGVHDEEAKP — higher, 2.08
- FWHDTLTEQLWRIFAGVHDETAKP — lower, 1.85
- FWHDTLTEQLWRIFAGVHDENAKP — higher, 2.2
- FWHDTLTEQLWRIFAGVHDEPAKP — lower, 1.47
- FWHDTLTEQLWRIFAGVHDEIAKP — higher, 3.25
- FWHDTLTEQLWRIFAGVHDEGAKP — higher, 2.06
- FWHDTLTEQLWRIFAGVHDECAKP — lower, 1.51
- FWHDTLTEQLWRIFAGVHDMKAKP — higher, 2.88
- FWHDTLTEQLWRIFAGVHDCKAKP — lower, 1.79
- FWHDTLTEQLWRIFAGVHDSKAKP — higher, 2.41
- FWHDTLTEQLWRIFAGVHDDKAKP — higher, 2.62
- FWHDTLTEQLWRIFAGVHDYKAKP — higher, 2.01
- FWHDTLTEQLWRIFAGVHDGKAKP — lower, 1.91
- FWHDTLTEQLWRIFAGVHDQKAKP — lower, 1.96
- FWHDTLTEQLWRIFAGVHDTKAKP — lower, 1.91
- FWHDTLTEQLWRIFAGVHDWKAKP — higher, 2.86
- FWHDTLTEQLWRIFAGVHDAKAKP — higher, 2.37
- FWHDTLTEQLWRIFAGVHDPKAKP — lower, 1.87
- FWHDTLTEQLWRIFAGVHDRKAKP — lower, 1.24
- FWHDTLTEQLWRIFAGVHDVKAKP — lower, 1.9
- FWHDTLTEQLWRIFAGVHDNKAKP — higher, 2.19
- FWHDTLTEQLWRIFAGVHDHKAKP — lower, 1.46
- FWHDTLTEQLWRIFAGVHDKKAKP — lower, 1.87
- FWHDTLTEQLWRIFAGVHDFKAKP — lower, 1.82
- FWHDTLTEQLWRIFAGVWDEKAKP — lower, 1.36
- FWHDTLTEQLWRIFAGVTDEKAKP — higher, 2.13
- FWHDTLTEQLWRIFAGVLDEKAKP — higher, 2.67
- FWHDTLTEQLWRIFAGVYDEKAKP — higher, 2.35
- FWHDTLTEQLWRIFAGVNDEKAKP — higher, 2.09
- FWHDTLTEQLWRIFAGVVDEKAKP — lower, 1.61
- FWHDTLTEQLWRIFAGVCDEKAKP — higher, 2.24
- FWHDTLTEQLWRIFAGVIDEKAKP — higher, 2.92
- FWHDTLTEQLWRIFAGVGDEKAKP — lower, 1.79
- FWHDTLTEQLWRIFAGVMDEKAKP — higher, 2.48
- FWHDTLTEQLWRIFAGVEDEKAKP — higher, 2.07
- FWHDTLTEQLWRIFAGVADEKAKP — higher, 2.38
- FWHDTLTEQLWRIFAGVQDEKAKP — lower, 1.5
- FWHDTLTEQLWRIFAGVKDEKAKP — lower, 1.53
- FWHDTLTEQLWRIFAGVSDEKAKP — higher, 2.72
- FWHDTLTEQLWRIFAGVPDEKAKP — lower, 1.48
- FWHDTLTEQLWRIFAGVFDEKAKP — lower, 1.92
- FWHDTLTEQLWRIFAGVRDEKAKP — lower, 1.84
- FWHDTLTEQLWRIFAGVDDEKAKP — higher, 2.1
- FWHDTLTEQLWRIFVGVHDEKAKP — higher, 2.82
- FWHDTLTEQLWRIFHGVHDEKAKP — lower, 1.86
- FWHDTLTEQLWRIFPGVHDEKAKP — higher, 2.23
- FWHDTLTEQLWRIFYGVHDEKAKP — lower, 1.62
- FWHDTLTEQLWRIFDGVHDEKAKP — lower, 1.86
- FWHDTLTEQLWRIFQGVHDEKAKP — lower, 1.61
- FWHDTLTEQLWRIFKGVHDEKAKP — lower, 1.81
- FWHDTLTEQLWRIFFGVHDEKAKP — lower, 1.73
- FWHDTLTEQLWRIFCGVHDEKAKP — higher, 2.23
- FWHDTLTEQLWRIFNGVHDEKAKP — lower, 1.68
- FWHDTLTEQLWRIFSGVHDEKAKP — higher, 2.43
- FWHDTLTEQLWRIFRGVHDEKAKP — lower, 1.94
- FWHDTLTEQLWRIFTGVHDEKAKP — lower, 1.89
- FWHDTLTEQLWRIFGGVHDEKAKP — higher, 2.02
- FWHDTLTEQLWRIFEGVHDEKAKP — lower, 1.77
- FWHDTLTEQLWRIFMGVHDEKAKP — lower, 1.39
- FWHDTLTEQLWRIFLGVHDEKAKP — higher, 2.41
- FWHDTLTEQLWRIFIGVHDEKAKP — lower, 1.79
- FWHDTLTEQLWRIFAGFHDEKAKP — lower, 1.69
- FWHDTLTEQLWRIFAGMHDEKAKP — lower, 1.93
- FWHDTLTEQLWRIFAGPHDEKAKP — lower, 1.65
- FWHDTLTEQLWRIFAGAHDEKAKP — higher, 2.81
- FWHDTLTEQLWRIFAGNHDEKAKP — lower, 1.83
- FWHDTLTEQLWRIFAGIHDEKAKP — lower, 1.14
- FWHDTLTEQLWRIFAGKHDEKAKP — lower, 1.79
- FWHDTLTEQLWRIFAGLHDEKAKP — lower, 1.48
- FWHDTLTEQLWRIFAGHHDEKAKP — higher, 2.82
- FWHDTLTEQLWRIFAGTHDEKAKP — lower, 1.33
- FWHDTLTEQLWRIFAGCHDEKAKP — lower, 1.47
- FWHDTLTEQLWRIFAGWHDEKAKP — lower, 1.61
- FWHDTLTEQLWRIFAGGHDEKAKP — higher, 2.26
- FWHDTLTEQLWRIFAGQHDEKAKP — higher, 2.06
- FWHDTLTEQLWRIFAGYHDEKAKP — lower, 1.54
- FWHDTLTEQLWRIFAGSHDEKAKP — lower, 1.85
- FWHDTLTEQLWRIFAGEHDEKAKP — lower, 1.83
- FWHDTLTEQLWRIFAGRHDEKAKP — higher, 2.25
- FWHDTLTEQLWRIFAGDHDEKAKP — lower, 1.92
- FWHDTLTEQLWRIFAGVHFEKAKP — higher, 2.61
- FWHDTLTEQLWRIFAGVHCEKAKP — higher, 2.06
- FWHDTLTEQLWRIFAGVHSEKAKP — lower, 1.79
